Measured values reported in patent US7211565 (ESPERION THERAPEUTICS, dated 2007).
Square brackets hold non-standard residues; d marks the D form. Ends that are not written are not given here.

Target: T1, lecithin:cholesterol acyltransferase (LCAT), purified from human plasma (human, UniProt P04180 25-440)
T1 sequence (looked up): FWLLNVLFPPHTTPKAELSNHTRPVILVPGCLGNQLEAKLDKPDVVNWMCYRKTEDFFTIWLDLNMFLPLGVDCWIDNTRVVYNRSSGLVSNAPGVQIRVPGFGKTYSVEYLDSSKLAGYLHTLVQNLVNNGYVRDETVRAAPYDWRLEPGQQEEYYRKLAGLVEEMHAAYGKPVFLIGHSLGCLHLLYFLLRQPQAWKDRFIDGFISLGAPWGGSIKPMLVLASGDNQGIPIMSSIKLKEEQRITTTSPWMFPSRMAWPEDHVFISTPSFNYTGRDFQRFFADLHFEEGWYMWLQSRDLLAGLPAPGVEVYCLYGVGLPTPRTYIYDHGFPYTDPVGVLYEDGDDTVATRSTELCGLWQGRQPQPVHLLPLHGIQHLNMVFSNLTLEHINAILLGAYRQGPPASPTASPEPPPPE
Experiment: cell-based or functional assay

Question: How did the “ACTIVITY (%) LCAT” value turn out when [dP]LFRELLNELLEALKQKLK [peptide 55 (SEQ ID NO:55)] was run?
Answer: 19%
